Assay results from the supplement of paper PMC12764529.
± gives the half width of the 95% confidence interval.

Assays:
[1] = folding stability dG unfold from chymotrypsin proteolysis; higher = more stable
Procedure, shortened: (§1)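 Sequencing followed digestion of designed mini-proteins with trypsin and chymotrypsin, each at 11 concentrations in threefold dilutions together with a no-protease condition. The mini-proteins were under 80 residues, had no cysteine, sat in a PA-tagged cDNA display construct, and were kept only if AlphaFold2 dimer inter-PAE was above 15. From the counts, Bayesian fitting gave K50, and unfolding free energy was derived against a sequence-predicted unfolded-state K50 and a shared folded-state K50, per protease or combined.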

[2] = folding stability dG unfold (combined trypsin and chymotrypsin); higher = more stable
Procedure, shortened: as §1

| Sequence | folding stability dG unfold [1] [kcal/mol] | folding stability dG unfold [2] [kcal/mol] |
| --- | --- | --- |
| SAGGSAGGSPAIRVERDPETDVLLAEIGHPDGVPALARISPATGTVTVLEGGKLVEVPLPEIGSAGGSAGGS [r12_650_TrMRF] | 0.627 ± 0.018 | 0.113 ± 0.13 |
| SAGGSAGGSPPVIHPMTVTTLAYDPATGVVDVLVDDKGKDPAVREAAEAAARAAGHPVEVVPRSAGGSAGGS [r20_157_JUSTAS] | -0.637 ± 0.34 | < -1 |
| SAGGSAGGSPVRPRTGTVYDPETGARVDVLEYEFPLPDGTPVTVTEVVVTDGDTRTTATLVDPSAGGSAGGS [r12_619_TrMRF] | 0.29 ± 0.014 | -0.263 ± 0.073 |
| SAGGSAGGSPWQVTHETVTLPEYDPSSDKPIREVTVTVTTETDPTTGATTVSLNLPSDFLRELRSAGGSAGG [r6_206_JUSTAS] | 0.291 ± 0.14 | -0.123 ± 0.22 |
| SAGGSAGGSRWRVSFEGPNGGTQEHDIPVPPGEPVDLDEILDEFKEAHPGGPPRPIKIERPDPSAGGSAGGS [r12_262_TrROS] | 0.232 ± 0.28 | -0.651 ± 0.33 |
| SAGGSAGGSSGLTLLEETEISPGPPVPAIPATLPVKVDGKTVPLPITLTPEELAALRAELLRRSAGGSAGGS [r20_148_JUSTAS] | 0.893 ± 0.088 | 0.364 ± 0.093 |
| SAGGSAGGSSPKAQRLQDRIRQEFPPNEIDKVEMSGDKIVIHGRPGYRQRIQEELGLKNIEIVSAGGSAGGS [r12_748_TrROS] | 0.344 ± 0.098 | 0.0708 ± 0.13 |
| SAGGSAGGSSSRFEAIKKKILDAFPEDVIKEVKKGPGKIYVVGKPEYIKEIKKLTGSKDIIINSAGGSAGGS [r12_748_JUSTAS] | -0.559 ± 0.36 | -0.606 ± 0.34 |
| SAGGSAGGSSTLSVELPDFTGSAADVLAALRAAFPDPALVLDGVEVRPLGADRPGWRVELAVASAGGSAGGS [r12_348_JUSTAS] | 0.958 ± 0.091 | 0.499 ± 0.078 |
| SAGGSAGGSTITGRFESPEGINELANEFPGVEIFEDPENNWIYVEIEIKPPPPPPPEDQKNNKSAGGSAGGS [r20_191_TrROS] | 0.916 ± 0.078 | 0.35 ± 0.3 |
| SAGGSAGGSTTMTLTITEYTNDPEGGVKKKKSTTESTVSPEEVEKVAEEVKKKSKNVKVTVNSSAGGSAGGS [r12_342_JUSTAS] | -0.315 ± 0.29 | -0.775 ± 0.23 |
| SAGGSAGGYRITIKDPDGVKIEIWQGPNGMMPIKVENPNGKKRERMVNGPPGDIEDFLKELLKQSAGGSAGG [r6_27_TrROS] | 0.378 ± 0.31 | -0.125 ± 0.59 |
| SAGGSAGHMIEKVTTTSPDNTTTTVSLTPPDAPLDIKLPNGASATQTPLPGGRLRVTTTTTTPAAASAGGSA [r15_523_JUSTAS] | 0.841 ± 0.062 | 0.338 ± 0.21 |
| SAGGSAGMPTTVFLTRPGPRAITMRTDPVSGTVTFTLPSGEVTTTPLSTVKELKVPPDIATVTILASAGGSA [r15_1043_JUSTAS] | -0.365 ± 0.29 | -0.609 ± 0.24 |
| SAGGSAKIEIEWNPENGMVRVKAEYPNDGKKKEHTFNPGDSPKQLADDINQEFKKPVEIDEIEWYPSAGGSA [r15_544_TrROS] | 0.683 ± 0.04 | 0.153 ± 0.44 |
| SAGGSAKLPPGQRVRLEIEHPAHGWTHEHTFPIKSVEEFKQSLEIPMPNPNGEPMPMRVKILDVEKSAGGSA [r15_797_TrROS] | -0.363 ± 0.48 | < -1 |
| SAGGSALPPGQKIKMKFPDDGKKMTITFNPGQNNIEIENDGKKETYPFDSVEDLLDEFGWKVLDIESAGGSA [r15_500_TrROS] | 0.465 ± 0.073 | -0.0488 ± 0.19 |
| SAGGSALTAKEARELVRNYAREHNPDYKVKGIEVERLPDKWVHADIEVRPPENPGQEHEWSIWIPYSAGGSA [r15_627_TrROS] | -0.418 ± 0.33 | -0.986 ± 0.31 |
| SAGGSAMIEVRTVAGEPVEVTPIPEDEVLVARTPGGRKAPFLLGEDVLRELVVEPDAPPDLFIVPGSAGGSA [r15_709_TrMRF] | -0.141 ± 0.093 | -0.617 ± 0.13 |
| SAGGSAMTKKTVVTIPLPPGAEDLSPEEVERRVRDELAAEPARPDVTVEVERLPPEPVVRVTITEASAGGSA [r15_1029_JUSTAS] | 0.0943 ± 0.046 | -0.307 ± 0.2 |
| SAGGSAMTTRATATPQPDGTVTVTVEAPGFSRTFTAPPGDLAASLAAVERELPPGEPRVVTSAAAGSAGGSA [r15_925_JUSTAS] | 0.346 ± 0.059 | -0.233 ± 0.067 |
| SAGGSAMVIDSKEVLEDDVLVTTTAITVDPSTGIKTEDVEEKPVPLPDGTPLPPRKTTRTTPLANASAGGSA [r15_623_JUSTAS] | 0.784 ± 0.025 | 0.175 ± 0.13 |
| SAGGSAPKIYSVEEKELPDNYRLIVFKADKSDPEFIEEIAELLPKEKVEPLSKSEDGYYVVRLPLESAGGSA [r15_386_TrMRF] | 0.0639 ± 0.23 | -0.0414 ± 0.26 |
| SAGGSAPKRLRIKFKDPDGKTQKIKIPPGIKSINIQPNNDYVSLMIHNPEDGQSRMLPPMRVDEITSAGGSA [r15_133_TrROS] | -0.899 ± 0.48 | < -1 |
| SAGGSAPPEVVEVPPVELPDYTVSPPRFAPEPTLRERTATPPDGPEFSVTTRIDPETGVPEVVVAASAGGSA [r15_84_JUSTAS] | 0.718 ± 0.017 | 0.211 ± 0.067 |

| Sequence | folding stability dG unfold [1] [kcal/mol] | folding stability dG unfold [2] [kcal/mol] |
| --- | --- | --- |
| SAGGSASMKTTTVTLPLDPAQLAEAIAALREAVAPDEAAEVTFVHPHAPTSLTVTISRSDVTLNAASAGGSA [r15_257_JUSTAS] | 0.706 ± 0.074 | -0.17 ± 0.11 |
| SAGGSASPVLVELPEGVRVELPPDTMTVTIRLPNGTEVVVPLENPEPPDPAAALARARAVVAALPESAGGSA [r15_748_JUSTAS] | 0.774 ± 0.1 | 0.185 ± 0.11 |
| SAGGSASSEFNTDKKPPPLPKKSKVINLNIPTPPDETEEEAKKKAEEIANKLKEEGKYGEVTVKIESAGGSA [r15_450_JUSTAS] | 0.756 ± 0.17 | 0.5 ± 0.41 |
| SAGGSASSGSMPLTKETDPLDGAGEVERVLYEDGTVVEIVTGADGKPTLRTRKVEIEPPEPLLLLRSAGGSA [r15_478_JUSTAS] | -0.501 ± 0.63 | < -1 |
| SAGGSDLSSASFSSSPSTLPDGRSLTTYPAVTLPDGTVATLTVETDPATGAPTVTLTLGDTDIVLATSAGGS [r16_766_JUSTAS] | 0.0331 ± 0.32 | -0.474 ± 0.25 |
| SAGGSIPAEELAAALAALPELPAAEVEVVVEERPDEVVVDVRFADPEHPRHVALLRRAERLLAEAASAGGSA [r2_3_TrMRF] | 0.373 ± 0.3 | -0.305 ± 0.22 |
| SAGGSKEEIEKKLKELAEKLGVEVEDIEIKPLSNGKYIAVVKFKDNPNVYAVYEFDGDEIKIVEIKPSAGGS [r8_432_TrMRF] | 5.04 ± 0.26 | 5.15 ± 0.57 |
| SAGGSMKIVKKSEDPSPPVETIEVDPNLDIEKIINELKNQPNVKVDKSTDPNSSKKTITITRPVDGSAGGSA [r2_44_JUSTAS] | 0.0999 ± 0.058 | -0.224 ± 0.086 |
| SAGGSMLTVDYTVSPDVDLEEALAAVAEEVRAALLAETGGPVAVDVRPVSRPPDGTVRIRVDVALESAGGSA [r2_214_JUSTAS] | 0.991 ± 0.028 | 0.525 ± 0.12 |
| SAGGSMTIDDLKGMPVKEIAKRLGPGYEVNVDPNHGTLTLQHPNYQVTINVSPKDGYVKITEVTPHSAGGSA [r2_470_TrROS] | -0.808 ± 0.32 | < -1 |
| SAGGSRMRILNIDPESNRIRVRHPGKPFTFPVDNIEEVTIDPNDGYLTIKMKGETQTIPLDDPDAFSAGGSA [r2_48_TrROS] | 0.575 ± 0.16 | 0.0825 ± 0.18 |
| SAGGSSLDDPSLLPGVTLTVTLPETGEVLRVPSSEVVSGPLSEAAARVRAEVAAAHPGRPWEVRAESAGGSA [r2_392_JUSTAS] | -0.728 ± 0.42 | < -1 |
| SAGGSSLPPDVTLVEEEKVVETPDGTTIKVKTTTAVSAEGTVRRPVTETITYPEKPETIEKETEIDASAGGS [r16_563_JUSTAS] | 0.405 ± 0.15 | 0.122 ± 0.33 |
| SAGGSSPPTTTRTFAHPDGRTTELTVPTLPDGTPVVTTTTGGTTTTLSLSQLEKLPSSWTFTSTSSSAGGSA [r2_431_JUSTAS] | -0.27 ± 0.24 | -0.971 ± 0.64 |
| SAGGSSSTPRIKTSVSSSTTVTPLPGPTTLVTTTTTTTTTNPANGQQLSTTPTTSTTVVTPGTGAALSAGGS [r8_204_JUSTAS] | 0.797 ± 0.053 | 0.314 ± 0.12 |
| SAGGTIEEIKEALKKLPEGAVVEVTTENGEKLEFKSLEEIKKATITNENGEKIKITEVKVYPAKKEKSAGGS [r16_680_TrROS_Hall] | 0.569 ± 0.16 | < -1 |
| SAGKIVIEGEPEKLPEAIEEALKNNPDLKKVTIYYGDKSEEFEKDEEVKFFKPKKNKDGKPFMVLVVEDSAG [r5_130_TrMRF] | 0.756 ± 0.23 | -0.00581 ± 0.37 |
| SAGKTVKVTVEKEVTLENGNKVTVKVEKTVELKPPPPKKITLSPEEIEEIDKETGEIRNKKTNKVFKIKSAG [r5_807_TrROS_Hall] | -0.0446 ± 0.37 | < -1 |
| SAGMIVVPLPLSVEEAPAFARELLEAAEAAGLEVTIRVPDEAVAEAVREAAPPDAPVRIEPLEPGEPVESAG [r5_911_JUSTAS] | 0.58 ± 0.054 | 0.128 ± 0.11 |
| SAGMKIKVPFKAEVAPGAKPVKVEVWLGDGPPVATARLYYKVPGEEKTEVALIPIDPSTGKVTVFVKPGSAG [r5_136_TrMRF] | 0.592 ± 0.26 | 0.0709 ± 0.32 |
| SAGMTITIEDLDNGEKVTIEKNPEDPNMVQIEYPNGPEQTFPADEIAEELGLPPSLLQNGIRIKKIKISSAG [r5_156_TrROS] | -0.603 ± 0.23 | < -1 |
| SAGMTPDETVNILVSPDDSPEKVAEIIARHGPLTVTLPGSTREFTSEEEIRALYEQHPEDQVINVTVLSAGG [r19_95_JUSTAS] | -0.0129 ± 0.21 | -0.447 ± 0.28 |
| SAGPLVITVEETDGTVTITIYDAETGEKIAEFTFPKGAEVTIEDGYITIRNKETGETFVFKLPDGVKPSAGG [r19_4_TrROS_Hall] | 6.34 ± 0.27 | > 6 |
| SAGPPEPREIEIPVEGSWSDLRNQVKNVAEEAQPKGEPVQIKIEWGGRPRKYTLNDIDDVPPWMKVEIYSAG [r5_626_TrROS] | -0.0343 ± 0.48 | -0.449 ± 0.74 |
